± gives the standard deviation of the averaged measurements.
B1: library; a variant is named by its letters at N, in order (parent)
chain: GCUGUCACCGGUGCUUGGUACGUUAUAUUCAGCCGGUCUGAUGAGUCUNNNNNNAGACGAAACAGC

Experiments:
(6R,S)-folinic acid [1] = variants of: B1; test: FACS-Seq fitted mean relative fluorescence mCherry/BFP without ligand (log10 relative fluorescence); HEK293T overexpressing SLC46A1; higher = higher reporter protein expression; details: without (6R,S)-folinic acid; ligand present: no
In short: (§1)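 HEK293T libraries were made by lentiviral transduction with a ribozyme-switch mCherry reporter and an EF1α-BFP marker, enriched, and incubated with or without ligand for 48 h. Cells were sorted into 6 mCherry/BFP bins, and each bin's genomic DNA was PCR-amplified, barcoded and run on MiSeq. Fluorescence was derived by normal fitting of the bin counts. The fitted log10(mCherry/BFP) mean was scaled to five spiked-in control ribozymes.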

(6R,S)-folinic acid [2] = variants of: B1; test: normalized RNA/DNA level without ligand (relative to sTRSVctl = 100) (log10 (% of sTRSVctl)); HEK293T overexpressing SLC46A1; higher = less ribozyme self-cleavage, higher mRNA level; details: without (6R,S)-folinic acid; ligand present: no
In short: (§2)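 Only sequences with at least 100 DNA reads were analyzed, from HEK293T cells transfected with 4 µg per 6-well well of ribozyme switch library plasmids 72 h before RNA extraction with EDTA. Any ligand was added 1 h before transfection. RNA level was defined as RNA over DNA reads, normalized to a spiked-in non-cleaving sequence or to the top sequences, then scaled and log-transformed. The top set was 25 sequences, and the scaling was ×100 followed by log10.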

(6R,S)-folinic acid [3] = variants of: B1; test: FACS-Seq fitted mean relative fluorescence mCherry/BFP with ligand (log10 relative fluorescence); HEK293T overexpressing SLC46A1; ligand concentration (+) FACS-Seq: 6 mM; higher = higher reporter protein expression; details: with (6R,S)-folinic acid; ligand present: yes
In short: as §1

(6R,S)-folinic acid [4] = variants of: B1; test: normalized RNA/DNA level with ligand (relative to sTRSVctl = 100) (log10 (% of sTRSVctl)); HEK293T overexpressing SLC46A1; ligand concentration (+) RNA-Seq: 6 mM; higher = less ribozyme self-cleavage, higher mRNA level; details: with (6R,S)-folinic acid; ligand present: yes
In short: as §2

Variant	FACS-Seq fitted mean (log10) ((6R,S)-folinic acid [1])	normalized RNA/DNA level without ligand (log10) ((6R,S)-folinic acid [2])	FACS-Seq fitted mean (log10) ((6R,S)-folinic acid [3])	normalized RNA/DNA level with ligand (log10) ((6R,S)-folinic acid [4])
UCACCG	0.426 ± 0.13	1.971 ± 0.006	0.151 ± 0.15	2.01 ± 0.03
ACACGA	0.206 ± 0.039	1.9971 ± 0.00061	0.242 ± 0.26	2.02 ± 0.059
CCACGU	0.714 ± 0.093	2.053 ± 0.0035	0.4025 ± 0.00094	2.0397 ± 0.0012
CCACUU	0.0563 ± 0.03	1.97 ± 0.021	-0.0467 ± 0.18	1.972 ± 0.007
ACAGAA	0.191 ± 0.02	1.947 ± 0.0015	0.0345 ± 0.24	2 ± 0.024
ACAGAC	0.355 ± 0.071	2.0094 ± 0.0017	0.356 ± 0.3	2.021 ± 0.0097
ACAGAG	0.511 ± 0.086	1.6069 ± 0.00022	0.928 ± 0.2	1.94 ± 0.048
CCAGAU	0.213 ± 0.0078	2.003 ± 0.0083	0.000255 ± 0.023	2.01 ± 0.027
GCAGAU	0.24 ± 0.072	1.958 ± 0.011	0.319 ± 0.16	2.02 ± 0.035
ACAGAU	-0.89 ± 0.044	1.95 ± 0.0032	-0.82 ± 0.13	2.03 ± 0.04
UCAGAU	0.523 ± 0.0091	1.95 ± 0.0075	0.201 ± 0.13	2.013 ± 0.011
ACAGCA	0.531 ± 0.039	2.015 ± 0.012	0.555 ± 0.17	2.04 ± 0.037
CCAGCC	0.159 ± 0.022	2.05 ± 0.025	-0.0156 ± 0.022	2.03 ± 0.039
GCAGCG	0.175 ± 0.0041	1.977 ± 0.016	0.0708 ± 0.18	2.03 ± 0.022
ACAGCG	0.271 ± 0.031	1.82 ± 0.023	0.411 ± 0.034	2.01 ± 0.031
UCAGCG	0.14 ± 0.042	1.912 ± 0.0054	0.669 ± 0.098	2.03 ± 0.023
GCAGGA	0.7 ± 0.19	1.972 ± 0.0072	0.642 ± 0.041	2.02 ± 0.023
UCAGGA	0.149 ± 0.13	1.901 ± 0.011	-0.0151 ± 0.03	1.98 ± 0.032
GCAGGG	0.107 ± 0.12	1.9807 ± 0.00024	0.128 ± 0.053	2.04 ± 0.036
ACAGGG	0.0799 ± 0.097	1.7 ± 0.032	0.604 ± 0.24	1.97 ± 0.029
UCAGGG	0.0969 ± 0.0033	1.81 ± 0.032	0.351 ± 0.2	1.99 ± 0.041
ACAGGU	0.385 ± 0.057	1.909 ± 0.019	0.437 ± 0.1	1.97 ± 0.052
UCAGGU	0.531 ± 0.015	1.9204 ± 0.0013	0.603 ± 0.23	1.99 ± 0.024
GCAGUA	0.218 ± 0.051	1.98 ± 0.022	0.482 ± 0.12	2.02 ± 0.038

Variant	FACS-Seq fitted mean (log10) ((6R,S)-folinic acid [1])	normalized RNA/DNA level without ligand (log10) ((6R,S)-folinic acid [2])	FACS-Seq fitted mean (log10) ((6R,S)-folinic acid [3])	normalized RNA/DNA level with ligand (log10) ((6R,S)-folinic acid [4])
UCAGUC	0.427 ± 0.2	2.083 ± 0.016	0.298 ± 0.2	2.013 ± 0.015
CCAGUG	0.445 ± 0.16	2.029 ± 0.0086	0.251 ± 0.16	2.022 ± 0.0066
ACAGUG	0.32076 ± 2.8e-05	1.732 ± 0.0061	0.629 ± 0.16	2 ± 0.028
GCAUAA	0.2764 ± 0.00097	1.968 ± 0.011	0.171 ± 0.029	2 ± 0.027
ACAUAA	-0.288 ± 0.045	1.9664 ± 0.00019	-0.603 ± 0.1	1.996 ± 0.019
UCAUAA	0.276 ± 0.048	1.935 ± 0.014	0.514 ± 0.034	1.96 ± 0.03
ACAUAC	0.125 ± 0.085	1.992 ± 0.0001	0.387 ± 0.078	1.99 ± 0.021
GCAUAG	0.335 ± 0.0092	1.966 ± 0.017	0.466 ± 0.13	2.02 ± 0.053
GCAUAU	-0.109 ± 0.058	1.97 ± 0.029	-0.0866 ± 0.33	2 ± 0.045
ACAUCA	0.659 ± 0.066	2.055 ± 0.0034	0.448 ± 0.075	2.05 ± 0.035
ACAUCC	0.096 ± 0.15	2.08 ± 0.018	0.0523 ± 0.006	2.03 ± 0.025
GCAUGA	0.25 ± 0.038	2.0186 ± 0.00041	0.168 ± 0.097	2.081 ± 0.01
UCAUGC	0.558 ± 0.075	2.038 ± 0.01	0.485 ± 0.15	2.04 ± 0.031
ACAUGG	0.326 ± 0.041	1.916 ± 0.0031	0.203 ± 0.12	2.04 ± 0.046
CCAUGU	0.369 ± 0.014	2.035 ± 0.018	0.222 ± 0.16	2.03 ± 0.04
GCAUUA	0.539 ± 0.07	1.995 ± 0.011	0.484 ± 0.1	2.03 ± 0.028
UCAUUG	0.0972 ± 0.14	1.876 ± 0.0017	0.304 ± 0.23	2 ± 0.05
GCCAAA	0.458 ± 0.071	2.02 ± 0.017	0.495 ± 0.12	2.029 ± 0.0061
ACCAAA	0.632 ± 0.15	2.018 ± 0.012	0.52 ± 0.14	2.017 ± 0.011
UCCAAG	0.322 ± 0.11	1.815 ± 0.0067	0.489 ± 0.12	1.992 ± 0.006
UCCACG	0.0965 ± 0.072	1.921 ± 0.0076	0.23 ± 0.091	2.01 ± 0.05
GCCAGA	0.385 ± 0.028	2.019 ± 0.017	0.278 ± 0.36	2.03 ± 0.021
UCCAGA	-0.0235 ± 0.25	2.01 ± 0.0079	0.123 ± 0.14	2 ± 0.029
GCCAGC	0.269 ± 0.003	2.0142 ± 0.00072	0.102 ± 0.14	2.02 ± 0.038

Variant	FACS-Seq fitted mean (log10) ((6R,S)-folinic acid [1])	normalized RNA/DNA level without ligand (log10) ((6R,S)-folinic acid [2])	FACS-Seq fitted mean (log10) ((6R,S)-folinic acid [3])	normalized RNA/DNA level with ligand (log10) ((6R,S)-folinic acid [4])
GCCAGG	0.43 ± 0.14	1.982 ± 0.0037	0.666 ± 0.18	2.002 ± 0.015
UCCAGG	0.587 ± 0.23	1.976 ± 0.011	0.559 ± 0.28	2.01 ± 0.056
GCCAUG	0.2783 ± 0.0012	1.982 ± 0.019	0.209 ± 0.15	2.01 ± 0.026
CCCCGA	-0.3459 ± 0.0019	2.028 ± 0.0046	-0.64 ± 0.16	2.02 ± 0.038
ACCCGA	0.249 ± 0.044	2.017 ± 0.016	0.537 ± 0.076	2.03 ± 0.044
CCCCUA	0.532 ± 0.01	2.052 ± 0.0066	0.388 ± 0.34	2.06 ± 0.034
CCCCUG	0.237 ± 0.046	2.063 ± 0.0031	0.0558 ± 0.16	2.053 ± 0.0049
GCCGAA	0.247 ± 0.078	2.011 ± 0.0054	0.486 ± 0.16	2.05 ± 0.022
ACCGAA	0.0903 ± 0.11	2.013 ± 0.0085	-0.117 ± 0.18	2.03 ± 0.043
GCCGAG	0.418 ± 0.066	1.968 ± 0.005	0.538 ± 0.22	2.016 ± 0.02
UCCGAG	-0.0266 ± 0.13	1.809 ± 0.011	0.131 ± 0.18	1.9932 ± 0.0011
ACCGAG	0.326 ± 0.018	1.893 ± 0.018	0.47 ± 0.072	2.01 ± 0.024
UCCGCG	0.277 ± 0.014	1.842 ± 0.0081	0.502 ± 0.16	1.96 ± 0.041
UCCGGG	0.446 ± 0.031	2.02 ± 0.026	0.62 ± 0.13	2.05 ± 0.031
CCCGGU	0.139 ± 0.18	2.023 ± 0.0033	0.0649 ± 0.052	2.02 ± 0.029
UCCGUG	0.0926 ± 0.016	1.78 ± 0.029	0.562 ± 0.067	1.98 ± 0.043
ACCGUU	0.123 ± 0.046	2.008 ± 0.016	-0.259 ± 0.15	2.01 ± 0.038
ACCUAG	0.3338 ± 0.0029	1.956 ± 0.0051	0.37 ± 0.31	2.02 ± 0.03
ACCUAU	0.349 ± 0.089	2.019 ± 0.018	0.644 ± 0.022	2.05 ± 0.033
CCCUCA	0.596 ± 0.099	2.0625 ± 0.0014	0.512 ± 0.32	2.04 ± 0.038
GCCUUA	0.12 ± 0.15	1.98 ± 0.027	-0.0974 ± 0.14	1.99 ± 0.037
CCCUUC	0.28 ± 0.13	2.141 ± 0.0043	0.0122 ± 0.3	2.05 ± 0.035
UCCUUG	0.0329 ± 0.028	1.85 ± 0.021	0.189 ± 0.026	1.99 ± 0.033

— the supplement of paper PMC6757056
